Results published in patent US8748182B2, “Mutant proteins and methods for producing them” (Heptares Therapeutics Limited, priority 2007, dated 2014).
Changes are numbered by the printed parent chain. In names and notes the source's numbering stands.

Test: Thermostability of neurotensin receptor (NTR) mutants (3H-neurotensin binding)
Type: physicochemical
Conditions: for thermostability, 3H-neurotensin (agonist) binding after the heating step: heated in the absence of the agonist; for thermostability, heated in the presence of 3H-neurotensin: Ligand(+) format
Procedure: FIG. 12 Flow chart showing the two different assay formats of ligand (+) and ligand (−) used to determine receptor thermostablity.
3. Mutants tested for thermostability by heating in the absence of the agonist were re-tested using a slightly different assay where the mutants were heated in the presence of ^3H-neurotensin (Ligand(+) format in FIG. 12). […] All of these also have increased thermostability. • 5. Preferred combinations are • a. Nag7m F358A+A86L+1260A+F342A Tm 51° C. (neurotensin bound) • b. Nag7n F358A+H103A+1260A+F342A Tm 51° C. (neurotensin bound) • Wildtype NTR has a Tm of 35° C. with neurotensin bound.

B1: 1116A: NTR point mutant (Ile 116) (protein, UniProt P20789 1-424, looked up, variant I116A)
Neurotensin receptor type 1: MHLNSSVPQGTPGEPDAQPFSGPQSEMEATFLALSLSNGSGNTSESDTAGPNSDLDVNTDIYSKVLVTAIYLALFVVGTVGNSVTAFTLARKKSLQSLQSTVHYHLGSLALSDLLALLLAMPVELYNFIWVHHPWAFGDAGCRGYYFLRDACTYATALNVASLSVERYLAICHPFKAKTLMSRSRTKKFISAIWLASALLAIPMLFTMGLQNRSGDGTHPGGLVCTPIVDTATVKVVIQVNTFMSFLFPMLVISILNTVIANKLTVMVHQAAEQGRVCTVGTHNGLEHSTFNMTIEPGRVQALRHGVLVLRAVVIAFVVCWLPYHVRRLMFCYISDEQWTTFLFDFYHYFYMLTNALFYVSSAINPILYNLVSANFRQVFLSTLACLCPGWRHRRKKRPTFSRKPNSMSSNHAFSTSATRETLY
thermostability, 3H-neurotensin (agonist) binding after the heating step: small but significant increase in thermostability

B2: F358A: NTR point mutant (protein, UniProt P20789 1-424, looked up, variant F358A)
Neurotensin receptor type 1: B1 Neurotensin receptor type 1 with A116I, F358A
thermostability, heated in the presence of 3H-neurotensin: improved thermostability | thermostability, 3H-neurotensin (agonist) binding after the heating step: small but significant increase in thermostability

B3: S362A: NTR point mutant (protein, UniProt P20789 1-424, looked up, variant S362A)
Neurotensin receptor type 1: B1 Neurotensin receptor type 1 with A116I, S362A
thermostability, heated in the presence of 3H-neurotensin: improved thermostability | thermostability, 3H-neurotensin (agonist) binding after the heating step: small but significant increase in thermostability

B4: Y351A: NTR point mutant (protein, UniProt P20789 1-424, looked up, variant Y351A)
Neurotensin receptor type 1: B1 Neurotensin receptor type 1 with A116I, Y351A
thermostability, 3H-neurotensin (agonist) binding after the heating step: small but significant increase in thermostability

B5: A90L: NTR point mutant (protein, UniProt P20789 1-424, looked up, variant A90L)
Neurotensin receptor type 1: B1 Neurotensin receptor type 1 with A90L, A116I
thermostability, heated in the presence of 3H-neurotensin: improved thermostability | thermostability, 3H-neurotensin (agonist) binding after the heating step: small but significant increase in thermostability

B6: V268A: NTR point mutant (protein, UniProt P20789 1-424, looked up, variant V268A)
Neurotensin receptor type 1: B1 Neurotensin receptor type 1 with A116I, V268A
thermostability, 3H-neurotensin (agonist) binding after the heating step: small but significant increase in thermostability

B7: L111A: NTR point mutant (protein, UniProt P20789 1-424, looked up, variant L111A)
Neurotensin receptor type 1: B1 Neurotensin receptor type 1 with L111A, A116I
thermostability, 3H-neurotensin (agonist) binding after the heating step: small but significant increase in thermostability

B8: S182A: NTR point mutant (protein, UniProt P20789 1-424, looked up, variant S182A)
Neurotensin receptor type 1: B1 Neurotensin receptor type 1 with A116I, S182A
thermostability, 3H-neurotensin (agonist) binding after the heating step: small but significant increase in thermostability

B9: L109A: NTR point mutant (protein, UniProt P20789 1-424, looked up, variant L109A)
Neurotensin receptor type 1: B1 Neurotensin receptor type 1 with L109A, A116I
thermostability, 3H-neurotensin (agonist) binding after the heating step: small but significant increase in thermostability

B10: N262A: NTR point mutant (protein, UniProt P20789 1-424, looked up, variant N262A)
Neurotensin receptor type 1: B1 Neurotensin receptor type 1 with A116I, N262A
thermostability, 3H-neurotensin (agonist) binding after the heating step: small but significant increase in thermostability

B11: T207A: NTR point mutant (protein, UniProt P20789 1-424, looked up, variant T207A)
Neurotensin receptor type 1: B1 Neurotensin receptor type 1 with A116I, T207A
thermostability, 3H-neurotensin (agonist) binding after the heating step: small but significant increase in thermostability

B12: K176A: NTR point mutant (protein, UniProt P20789 1-424, looked up, variant K176A)
Neurotensin receptor type 1: B1 Neurotensin receptor type 1 with A116I, K176A
thermostability, 3H-neurotensin (agonist) binding after the heating step: small but significant increase in thermostability

B13: S100A: NTR point mutant (protein, UniProt P20789 1-424, looked up, variant S100A)
Neurotensin receptor type 1: B1 Neurotensin receptor type 1 with S100A, A116I
thermostability, 3H-neurotensin (agonist) binding after the heating step: small but significant increase in thermostability

B14: A120L: NTR point mutant (protein, UniProt P20789 1-424, looked up, variant A120L)
Neurotensin receptor type 1: B1 Neurotensin receptor type 1 with A116I, A120L
thermostability, 3H-neurotensin (agonist) binding after the heating step: small but significant increase in thermostability

B15: L256A: NTR point mutant (protein, UniProt P20789 1-424, looked up, variant L256A)
Neurotensin receptor type 1: B1 Neurotensin receptor type 1 with A116I, L256A
thermostability, 3H-neurotensin (agonist) binding after the heating step: small but significant increase in thermostability

B16: H103A: NTR point mutant (protein, UniProt P20789 1-424, looked up, variant H103A)
Neurotensin receptor type 1: B1 Neurotensin receptor type 1 with H103A, A116I
thermostability, heated in the presence of 3H-neurotensin: improved thermostability | thermostability, 3H-neurotensin (agonist) binding after the heating step: small but significant increase in thermostability

B17: M293A: NTR point mutant (protein, UniProt P20789 1-424, looked up, variant M293A)
Neurotensin receptor type 1: B1 Neurotensin receptor type 1 with A116I, M293A
thermostability, 3H-neurotensin (agonist) binding after the heating step: small but significant increase in thermostability

B18: A356L: NTR point mutant (protein, UniProt P20789 1-424, looked up, variant A356L)
Neurotensin receptor type 1: B1 Neurotensin receptor type 1 with A116I, A356L
thermostability, 3H-neurotensin (agonist) binding after the heating step: small but significant increase in thermostability

B19: G209A: NTR point mutant (protein, UniProt P20789 1-424, looked up, variant G209A)
Neurotensin receptor type 1: B1 Neurotensin receptor type 1 with A116I, G209A
thermostability, 3H-neurotensin (agonist) binding after the heating step: small but significant increase in thermostability

B20: R392A: NTR point mutant (protein, UniProt P20789 1-424, looked up, variant R392A)
Neurotensin receptor type 1: B1 Neurotensin receptor type 1 with A116I, R392A
thermostability, 3H-neurotensin (agonist) binding after the heating step: small but significant increase in thermostability

B21: L205A: NTR point mutant (protein, UniProt P20789 1-424, looked up, variant L205A)
Neurotensin receptor type 1: B1 Neurotensin receptor type 1 with A116I, L205A
thermostability, 3H-neurotensin (agonist) binding after the heating step: small but significant increase in thermostability

B22: D139A: NTR point mutant (protein, UniProt P20789 1-424, looked up, variant D139A)
Neurotensin receptor type 1: B1 Neurotensin receptor type 1 with A116I, D139A
thermostability, 3H-neurotensin (agonist) binding after the heating step: small but significant increase in thermostability

B23: F147A: NTR point mutant (protein, UniProt P20789 1-424, looked up, variant F147A)
Neurotensin receptor type 1: B1 Neurotensin receptor type 1 with A116I, F147A
thermostability, 3H-neurotensin (agonist) binding after the heating step: small but significant increase in thermostability

B24: L72A: NTR point mutant (protein, UniProt P20789 1-424, looked up, variant L72A)
Neurotensin receptor type 1: B1 Neurotensin receptor type 1 with L72A, A116I
thermostability, 3H-neurotensin (agonist) binding after the heating step: small but significant increase in thermostability

B25: P399A: NTR point mutant (protein, UniProt P20789 1-424, looked up, variant P399A)
Neurotensin receptor type 1: B1 Neurotensin receptor type 1 with A116I, P399A
thermostability, 3H-neurotensin (agonist) binding after the heating step: small but significant increase in thermostability

B26: F189A: NTR point mutant (protein, UniProt P20789 1-424, looked up, variant F189A)
Neurotensin receptor type 1: B1 Neurotensin receptor type 1 with A116I, F189A
thermostability, 3H-neurotensin (agonist) binding after the heating step: small but significant increase in thermostability

B27: A155L: NTR point mutant (protein, UniProt P20789 1-424, looked up, variant A155L)
Neurotensin receptor type 1: B1 Neurotensin receptor type 1 with A116I, A155L
thermostability, 3H-neurotensin (agonist) binding after the heating step: small but significant increase in thermostability

B28: D113A: NTR point mutant (protein, UniProt P20789 1-424, looked up, variant D113A)
Neurotensin receptor type 1: B1 Neurotensin receptor type 1 with D113A, A116I
thermostability, 3H-neurotensin (agonist) binding after the heating step: small but significant increase in thermostability

B29: M181A: NTR point mutant (protein, UniProt P20789 1-424, looked up, variant M181A)
Neurotensin receptor type 1: B1 Neurotensin receptor type 1 with A116I, M181A
thermostability, 3H-neurotensin (agonist) binding after the heating step: small but significant increase in thermostability

B30: T179A: NTR point mutant (protein, UniProt P20789 1-424, looked up, variant T179A)
Neurotensin receptor type 1: B1 Neurotensin receptor type 1 with A116I, T179A
thermostability, 3H-neurotensin (agonist) binding after the heating step: small but significant increase in thermostability

B31: S108A: NTR point mutant (protein, UniProt P20789 1-424, looked up, variant S108A)
Neurotensin receptor type 1: B1 Neurotensin receptor type 1 with S108A, A116I
thermostability, 3H-neurotensin (agonist) binding after the heating step: small but significant increase in thermostability

B32: W391A: NTR point mutant (protein, UniProt P20789 1-424, looked up, variant W391A)
Neurotensin receptor type 1: B1 Neurotensin receptor type 1 with A116I, W391A
thermostability, 3H-neurotensin (agonist) binding after the heating step: small but significant increase in thermostability
